Here are results for 1 molecule from paper PMC9117644 (Frontiers in Bioengineering and Biotechnology, 2022).

The assay deals with T1, human TLR4 ectodomain (S2-derived) (human, UniProt O00206 23-629).
T1 construct: human toll-like receptor 4 ectodomain, UniProtKB O00206, P23-M629, Drosophila codon-optimized; Cloned into pExpreS2-1-CRPA (Addgene #175445): N-terminal BiP signal peptide for secretion, C-terminal thrombin-cleavable Protein A tag; a few residues of the thrombin site probably remain after cleavage; also called toll-like receptor 4; Drosophila-derived TLR4; source: purified (IgG Sepharose, …)
The assay is described as follows: SEC; analytical SEC, Superdex 200 Increase 30/100 on a Dionex Ultimate 3000 UHPLC; 100-µl injections of 200 µg TLR4, 400 µg MD-2, or 200 µg TLR4 + 400 µg MD-2; A280 traces. The settings on record: both partners purified. In general terms: Size exclusion chromatography separates by hydrodynamic size, large species first.

T1 sequence (O00206 23-629): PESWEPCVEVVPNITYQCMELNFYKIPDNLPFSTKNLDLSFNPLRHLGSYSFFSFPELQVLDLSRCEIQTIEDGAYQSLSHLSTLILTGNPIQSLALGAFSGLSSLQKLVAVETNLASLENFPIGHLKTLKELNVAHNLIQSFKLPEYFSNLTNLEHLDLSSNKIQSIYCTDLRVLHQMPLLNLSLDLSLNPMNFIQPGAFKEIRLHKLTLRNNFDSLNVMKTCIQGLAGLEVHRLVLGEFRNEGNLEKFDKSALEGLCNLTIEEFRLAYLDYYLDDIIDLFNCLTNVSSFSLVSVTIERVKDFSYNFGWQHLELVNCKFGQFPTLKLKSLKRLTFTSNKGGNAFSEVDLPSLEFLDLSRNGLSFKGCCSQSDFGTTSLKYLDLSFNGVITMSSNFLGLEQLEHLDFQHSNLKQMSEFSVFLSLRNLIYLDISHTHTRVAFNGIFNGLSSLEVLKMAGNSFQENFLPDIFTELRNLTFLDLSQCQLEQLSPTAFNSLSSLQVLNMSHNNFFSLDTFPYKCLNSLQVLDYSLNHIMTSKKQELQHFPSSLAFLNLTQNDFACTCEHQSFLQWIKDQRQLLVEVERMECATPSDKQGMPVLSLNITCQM

B1: human MD-2 (S2-derived, Protein A tagged) (natural protein, UniProt Q9Y6Y9 19-160, looked up)
chain: QKQYWVCNSSDASISYTYCDKMQYPISINVNPCIELKRSKGLLHIFYIPRRDLKQLYFNLYITVNTMNLPKRKEVICRGSDDDYSFCRALKGETVNTTISFSFKGIKFSKGKYKCVVEAISGSPEEMLFCLEFVILHQPNSN
notes: human lymphocyte antigen 96 (MD-2), UniProtKB Q9Y6Y9, Q19-N160, Drosophila codon-optimized; Cloned into pExpreS2-1-CRPA (Addgene #175445): N-terminal BiP signal peptide for secretion, thrombin site and Protein A at the C-terminus; the tag was routinely left on for stability; also called lymphocyte antigen 96; source: purified (IgG Sepharose, SEC); not shown: Protein A, C-terminal, kept
As to B1, the binding result is reported as “binds”.
